Results as given in paper PMC3074137.

What was measured:
[1] = biological target: eIF4G-MC (83.5 kDa fragment of human eIF4GI, residues 712-1451) (human) (UniProt Q04637); test: ITC
eIF4G-MC (F978A) (human) = eIF4G-MC (F978A) (human) (UniProt Q04637); test: ITC
[2] = biological target: eIF4G-MC (83.5 kDa fragment of human eIF4GI, residues 712-1451) (human) (UniProt Q04637); test: SEC
[3] = biological target: eIF4G-MC (83.5 kDa fragment of human eIF4GI, residues 712-1451) (human) (UniProt Q04637); test: SAXS
His6-eIF4G-MC (human) = His6-eIF4G-MC (human) (UniProt Q04637); test: SPR
Sequence of His6-eIF4G-MC (human) (Q04637 711-1450): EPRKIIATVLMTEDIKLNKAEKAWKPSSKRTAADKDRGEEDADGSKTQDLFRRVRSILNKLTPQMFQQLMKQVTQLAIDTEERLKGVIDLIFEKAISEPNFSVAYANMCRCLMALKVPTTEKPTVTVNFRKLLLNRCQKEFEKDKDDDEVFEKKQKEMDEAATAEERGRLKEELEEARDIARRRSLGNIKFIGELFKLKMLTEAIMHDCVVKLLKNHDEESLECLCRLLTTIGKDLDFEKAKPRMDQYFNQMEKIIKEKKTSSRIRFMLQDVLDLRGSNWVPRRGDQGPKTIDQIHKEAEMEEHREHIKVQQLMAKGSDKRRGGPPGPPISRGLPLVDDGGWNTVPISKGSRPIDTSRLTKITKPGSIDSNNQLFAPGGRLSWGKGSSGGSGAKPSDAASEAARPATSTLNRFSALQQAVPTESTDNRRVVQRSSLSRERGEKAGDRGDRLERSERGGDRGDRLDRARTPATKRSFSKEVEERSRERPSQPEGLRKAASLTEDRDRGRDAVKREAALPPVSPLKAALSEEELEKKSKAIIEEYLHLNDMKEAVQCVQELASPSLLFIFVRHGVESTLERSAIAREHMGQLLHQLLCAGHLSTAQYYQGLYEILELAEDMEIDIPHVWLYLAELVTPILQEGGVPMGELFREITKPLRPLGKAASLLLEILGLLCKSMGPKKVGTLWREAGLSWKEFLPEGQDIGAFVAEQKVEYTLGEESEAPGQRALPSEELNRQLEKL

eIF4A (human) = eIF4A (human) (UniProt P60842); test: ITC
eIF4B = eIF4B (human, UniProt P23588 1-611); test: pull-down
Sequence of eIF4B (P23588 whole entry): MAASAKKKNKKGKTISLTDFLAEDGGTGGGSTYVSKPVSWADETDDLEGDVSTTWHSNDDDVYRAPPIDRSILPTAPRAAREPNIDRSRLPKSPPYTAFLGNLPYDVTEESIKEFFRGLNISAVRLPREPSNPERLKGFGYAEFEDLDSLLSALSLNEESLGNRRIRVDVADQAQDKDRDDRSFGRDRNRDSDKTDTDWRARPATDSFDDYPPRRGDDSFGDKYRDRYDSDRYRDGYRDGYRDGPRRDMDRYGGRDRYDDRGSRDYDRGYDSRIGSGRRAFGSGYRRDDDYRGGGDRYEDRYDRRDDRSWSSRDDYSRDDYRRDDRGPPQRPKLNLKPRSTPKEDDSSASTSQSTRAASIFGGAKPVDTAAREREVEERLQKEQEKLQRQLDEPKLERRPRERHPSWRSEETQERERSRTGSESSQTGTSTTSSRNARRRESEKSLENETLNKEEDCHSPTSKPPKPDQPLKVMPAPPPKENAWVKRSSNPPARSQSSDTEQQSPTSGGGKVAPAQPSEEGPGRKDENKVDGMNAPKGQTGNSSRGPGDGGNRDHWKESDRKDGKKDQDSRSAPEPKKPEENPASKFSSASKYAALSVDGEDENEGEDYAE

eIF4A;eIF4BΔC = eIF4A;eIF4BΔC (human;human, UniProt P60842;P23588 1-406;1-431, |); test: pull-down
eIF4A;eIF4B = eIF4A;eIF4B (human;human, UniProt P60842;P23588 1-406;1-611, |); test: pull-down

Sequence of eIF4G-MC (83.5 kDa fragment of human eIF4GI, residues 712-1451) (human) (Q04637 711-1450): as the sequence (Q04637 711-1450) above
Sequence of eIF4G-MC (83.5 kDa fragment of human eIF4GI, residues 712-1451) (Q04637 711-1450): as above
Sequence of eIF4G-MC (F978A) (human) (Q04637 711-1450 F977A): as the sequence (Q04637 711-1450) above, with F267A counted along it

eIF4A (from UniProt P60842 1-406) (enzyme)
KD high-affinity site [1]: 50 nM | KD low-affinity site [1]: 775 nM | Kd (eIF4G-MC (F978A) (human)): 417 nM | stoichiometry N (eIF4A per eIF4G-MC (F978A)) (eIF4G-MC (F978A) (human)): 1 | stoichiometry N (eIF4A per eIF4G-MC) [2]: 1 | stoichiometry N (eIF4A per eIF4G-MC) [3]: 1 | KD high-affinity site (His6-eIF4G-MC (human)): 67 nM

eIF4G-MC (83.5 kDa fragment of human eIF4GI, residues 712-1451) (from UniProt Q04637-8 712-1451) (domain or fragment)
KD high-affinity site (eIF4A (human)): 42 nM | KD low-affinity site (eIF4A (human)): 1600 nM

UUUUUUUUUUUUUUUUUUUUUUUUUUUUUU (ssRNA) [pU30-biotin]
binding result (eIF4B): binds | binding result (eIF4A;eIF4BΔC): binds | binding result (eIF4A;eIF4B): binds
